Data: patent US20130295118A1 (CELLERANT THERAPEUTICS, published 2013)
Positions count from the first letter of the chain named.

T1: human C type Lectin Like molecule 1 (CLL-1) on cells (human, UniProt Q5QGZ9 1-265)
T1 construct: also called hCLL-1; CLEC12A
T1 sequence: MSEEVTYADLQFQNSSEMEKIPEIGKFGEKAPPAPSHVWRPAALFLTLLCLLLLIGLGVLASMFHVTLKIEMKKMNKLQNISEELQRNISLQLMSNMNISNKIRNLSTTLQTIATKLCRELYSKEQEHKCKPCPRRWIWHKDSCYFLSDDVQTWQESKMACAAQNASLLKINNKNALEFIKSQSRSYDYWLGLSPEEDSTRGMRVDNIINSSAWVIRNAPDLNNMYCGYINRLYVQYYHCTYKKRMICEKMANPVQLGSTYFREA

T2: biotinylated CLL-1 (hCLL-1) (human, UniProt Q5QGZ9 65-265, limits assumed, biotinylated (site not stated))
T2 sequence: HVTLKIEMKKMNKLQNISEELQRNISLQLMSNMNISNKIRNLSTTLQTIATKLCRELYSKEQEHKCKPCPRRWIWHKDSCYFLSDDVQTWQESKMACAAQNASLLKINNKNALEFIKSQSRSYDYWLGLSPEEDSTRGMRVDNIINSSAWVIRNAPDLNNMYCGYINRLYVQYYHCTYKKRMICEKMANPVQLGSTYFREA

T3: C lectin domain of CLL-1 expressed in 293T cells (human, UniProt Q5QGZ9 140-249)
T3 sequence: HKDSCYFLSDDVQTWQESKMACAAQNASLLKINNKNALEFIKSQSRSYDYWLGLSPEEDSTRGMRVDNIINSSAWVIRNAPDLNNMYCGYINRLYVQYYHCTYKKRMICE

B1: CLL-1 antibody clone G4 (antibody, IgG1, V domains shown)
VH: EVQLQQSGPELVKPGASMKISCKASGYSFTGYTMNWVKQSHEKNLEWIGPINPYNDGTIYNPNFKGKATLTVDKASSTAYMELLSLTSDDPAVYYCARTDDYDDYTMDYWGQGTSVTVSS
VL: EIQMTQTPSSLSASLGDRVTISCRASHDISNYLNWYQQKPDGTLKLLIYYTSRLHSGVPSRFSGSGSGTDYSLTISNLEQEDIATYFCQQGKTLLWTFGGGTKLEIK
notes: also called 31.G4; 31G4
B2: human chimeric CLL-1 antibody ChiG4 (antibody, V domains shown)
VH: B1 VH
VL: B1 VL
B3: CLL-1 antibody clone G12 (antibody, IgG1, V domains shown)
VH: QVQLQQPGAELVKPGASMKMSCKASGYTFPSSNIHWLKQTPGQGLEWIGVIYPGNGDTSYNQKFKDKATLTTDKSSSTAYMQLSSLTSEDSAIYFCARVYNWHFDVWGAGTTVTVSS
VL: NIVLTQSPASLAVSLGQRATISCRASESVDGYGDIFMLWYQQKPGQPPKLLIYFASNLESGVPARFSGSGSRTDFTLTIDPVEADDAATYYCQQNNEDPYTFGGGTKLEIKR
B4: CLL-1 antibody clone M29 (antibody, IgG1, V domains shown)
VH: EVQLQQSGPELVKPGASVKMSCKASGYIFTSYVMYWVKQKPGQGLEWIGYINPYNDGTKYNEKFKGKATLTSDKSSSTAYMELSSLTSEDSAVYYCARYYDYDYYFDYWGQGTTLTVSS
VL: DIQMTQSPSSLSASLGGKVTITCKASQDINKYIAWYQHKPGKGPRLLIHYTSTLQPGIPSRFSGSGSGRDYSFSISNLEPEDIATYYCLQYDYLWTFGGGTKLEIK
B5: CLL-1 antibody clone M26 (antibody, V domains shown)
VH: EVQLQQSGPELVKPGASVKMSCKASGYTFTSYFIHWVKQKPGQGLEWIGFINPYNDGSKYNEKFKGKATLTSDKSSSTAYMELSSLTSEDSAVYYCTRDDGYYGYAMDYWGQGTSVTVSS
VL: DIQMTQSPSSLSASLGERVSLTCRATQELSGYLSWLQQKPDGTIKRLIYAASTLDSGVPKRFSGNRSGSDYSLTISSLESEDFADYYCLQYAIYPYTFGGGTKLEIKR
notes: Conjugated to saporin in the ADC assays
B6: human chimeric CLL-1 antibody ChiM26 (antibody, V domains shown)
VH: B5 VH
VL: B5 VL
B7: CLL-1 antibody clone M2 (antibody, IgG1, V domains shown)
VH: B5 VH with Q5R, I34M, S58T, S84N, G104D
VL: B5 VL with T26S, L29I, G31V, K60E, N65S, I93S
B8: CLL-1 antibody clone M5 (antibody, IgG2a, V domains shown)
VH: EVQLQQSGAELVRPGASVKLSCTASGFNIKDDYIHWVKQRPEQGLEWIGWIDPEKGDTAYASKFQDKATITSDTSSNTAYLQLSSLTSEDTAVYYCTLTGRFDYWGQGTTLTVSS
VL: DIVMSQSPSSLAVSVGEKVTMSCKSSQSLLYSSNQKNNLAWYQQKPGQSPKLLIYWASTRESGVPDRFTGSGSGTDFTLTISSVQAEDLAVYYCQQYYSYRTFGGGTKLEIK
B9: CLL-1 antibody clone M22 (antibody, IgG2a, V domains shown)
VH: QVQLQQPGAELVKPGASVKLSCKASGYTFTRYWMHWVKQRPGQGLEWIGNIDPSDTETHYNQQFKDKATLTVDKSSSTAYMQLSSLTSEDSAVYYCAIYYGNPSYYAMDYWGQGTSVTVSS
VL: DIVMTQSPSSLTVTAGEKVTMSCKSSQNLLNSGNQKKYLNWYQQKPGQPPKLLIYWASTRESGVPDRFTGSGSGTDFTLTISSVQAEDLAVYFCQNDYSYPFTFGAGTKLELK
B10: CLL-1 antibody clone M31 (antibody, IgG2a, V domains shown)
VH: EVQLQQSGPELVKPGASVKMSCKASGYTFTSYVMHWVKQKPGQGLEWIGYINPYNDGTKYNEKFKGKATLTSDTSSSTAYMELNSLTSEDSAVYFCARPIYFDNDYFDYWGQGTTLKVSS
VL: TIVLTQSPASLAVSLGQRATISCRASESVDSYGNSFMHWYQQKPGQPPKLLIYLASNLESGVPARFSGSGSRTDFTLTIDPVEADDAATYYCQQNNYDPWTFGGGTKLEIK
B11: human chimeric CLL-1 antibody ChiM31 (antibody, V domains shown)
VH: B10 VH
VL: B10 VL

How the values were obtained:
[1] = target: T1, human C type Lectin Like molecule 1 …; assay: FACS, primary AML patient cells, Group 1
[2] = target: T1, human C type Lectin Like molecule 1 …; assay: FACS, HL60 AML cell line
[3] = target: T2, biotinylated CLL-1 (hCLL-1); assay: biotinylated CLL-1 on streptavidin sensor tips; antibody at 10, 30, 90 ug/ml; global 1:1 fit
[4] = target: T1, human C type Lectin Like molecule 1 …; assay: FACS, OCI AML-5 AML cell line
[5] = target: T1, human C type Lectin Like molecule 1 …; assay: cell-based or functional assay
[6] = target: T1, human C type Lectin Like molecule 1 …; assay: cell-based or functional assay; remark: listed apart in the source
[7] = target: T1, human C type Lectin Like molecule 1 …; assay: FACS, recombinant 293 cells expressing human CLL-1
[8] = target: T3, C lectin domain of CLL-1 expressed in …; assay: binding to 293T cells expressing the C lectin domain of CLL-1
[9] = target: T1, human C type Lectin Like molecule 1 …; assay: cell-based or functional assay; remark: listed apart in the source

Binder | positive patient samples / total tested [1] | % of live cells with antibody binding [2] [%] | Kd [3] [pM] | % of live cells with antibody binding [4] [%] | ADC EC50 (pM), saporin-conjugated antibody, cell viability [5] [pM] | ADCC EC50 (Promega ADCC Reporter Assay) [6] [µg/mL] | % of live cells with antibody binding [7] [%] | binding result [8] | CDC (% killing), 10 ug/mL antibody, primary AML cells [9] [%]
B1 | 2 of 2 patient samples | 83.2 | 53 | 83.2 | 44.4 |  |  |  | 
B2 |  |  |  |  |  | 0.105 |  |  | 
B3 | 2 of 2 patient samples | 88.3 | 70 |  | 19.4 |  | 99.9 |  | 
B4 |  | 84.6 | 1480 | 87.6 | 91.4 |  | 99.9 |  | 
B5 |  |  | 214 |  | 90.2 |  |  | no binding | 
B6 |  |  |  |  |  | 0.079 |  |  | 
B7 | 2 of 2 patient samples | 90.3 | 205 | 96.3 | 20.9 |  | 99.9 |  | 
B8 |  | 1.7 | 553 | 2.3 | 150 |  | 1.1 |  | 17.9
B9 |  | 37.2 | 388 | 57.6 |  |  | 97 |  | 14.5
B10 |  | 91 | 611 | 89.7 | 34.3 |  | 76 | no binding | 12.1
B11 |  |  |  |  |  | 0.143 |  |  | 
